Test results from paper PMC7360590, “Structural basis of SALM3 dimerization and synaptic adhesion complex formation with PTPσ” (Scientific Reports, 2020).

B1: mouse PTPσ Ig1-3-meB+ (residues 33–331) (domain or fragment, UniProt B0V2N1 33-331, looked up)
chain: PRFIREPKDQIGVSGGVASFVCQATGDPKPRVTWNKKGKKVNSQRFETIDFDESSGAVLRIQPLRTPRDENVYECVAQNSVGEITIHAKLTVLREDQLPPGFPNIDMGPQLKVVERTRTATMLCAASGNPDPEITWFKDFLPVDPSASNGRIKQLRSGALQIESSEETDQGKYECVATNSAGVRYSSPANLYVRVRRVAPRFSILPMSHEIMPGGNVNITCVAVGSPMPYVKWMQGAEDLTPEDDMPVGRNVLELTDVKDSANYTCVAMSSLGVIEAVAQITVKSLPKAPGTPVVTENT
notes: Receptor protein tyrosine phosphatase sigma (PTPσ), mouse, Ig1-Ig3 domains, splice form with mini-exon B (meB+), residues 33-331; The meB+ splice form is meant; also called PTPσ_(Ig1-Ig3); PTPσ Ig1-Ig3; source: purified
B2: PTPσ-Fc fusion protein (Fc fusion)
chain: PRFIREPKDQIGVSGGVASFVCQATGDPKPRVTWNKKGKKVNSQRFETIDFDESSGAVLRIQPLRTPRDENVYECVAQNSVGEITIHAKLTVLREDQLPPGFPNIDMGPQLKVVERTRTATMLCAASGNPDPEITWFKDFLPVDPSASNGRIKQLRSGALQIESSEETDQGKYECVATNSAGVRYSSPANLYVRVRRVAPRFSILPMSHEIMPGGNVNITCVAVGSPMPYVKWMQGAEDLTPEDDMPVGRNVLELTDVKDSANYTCVAMSSLGVIEAVAQITVKSLPKAPGTPVV

Columns and labels:
[1] = target: T1, SALM3 LRR-Ig (residues 17–367) (mouse, UniProt Q80XU8 17-367); assay: SEC-SAXS; SALM3 LRR-Ig (60 µM) and PTPσ (80 µM) mixed, 1 h at 4 °C; Superdex 200 PC 3.2/30, 30 mM Tris HCl pH 7.5, 150 mM NaCl, 4 °C; rigid body (CORAL) and ab initio (DAMMIN) modelling; conditions: both partners purified
T1 construct: SALM3 (LRFN4), mouse, LRR and Ig domains, residues 17-367; also called SALM3 LRR-Ig construct; source: purified
T1 sequence (looked up): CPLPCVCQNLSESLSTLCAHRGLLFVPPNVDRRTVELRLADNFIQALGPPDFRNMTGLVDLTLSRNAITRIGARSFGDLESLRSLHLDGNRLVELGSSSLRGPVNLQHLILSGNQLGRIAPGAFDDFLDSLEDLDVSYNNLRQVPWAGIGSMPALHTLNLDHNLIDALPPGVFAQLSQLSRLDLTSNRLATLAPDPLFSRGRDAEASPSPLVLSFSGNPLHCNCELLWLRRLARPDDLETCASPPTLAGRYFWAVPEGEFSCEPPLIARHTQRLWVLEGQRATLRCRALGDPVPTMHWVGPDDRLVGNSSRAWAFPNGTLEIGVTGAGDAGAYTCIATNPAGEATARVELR

[2] = target: T2, mouse SALM3 LRR-Ig-Fn (residues 17–510), wild type, displayed on HEK293T cells (mouse, UniProt Q80XU8 17-510); assay: in-cell Western (cell-based binding assay); apparent; concentration series of soluble PTPσ-Fc (1–250 nM) on SALM3-transfected HEK293T cells in 96-well plates, EGB buffer with 1% BSA, overnight at 4 °C; detected with anti-human IgG IRDye 800CW; conditions: one partner purified
T2 construct: SALM3 (LRFN4), mouse, extracellular LRR-Ig-Fn, residues 17-510; also called WT SALM3; SALM3-pDisplay; source: HEK293T, transfected (pDisplay), on the cell surface; not shown: HA, N-terminal, kept; transmembrane domain (from the vector pDisplay), C-terminal, kept
T2 sequence (looked up): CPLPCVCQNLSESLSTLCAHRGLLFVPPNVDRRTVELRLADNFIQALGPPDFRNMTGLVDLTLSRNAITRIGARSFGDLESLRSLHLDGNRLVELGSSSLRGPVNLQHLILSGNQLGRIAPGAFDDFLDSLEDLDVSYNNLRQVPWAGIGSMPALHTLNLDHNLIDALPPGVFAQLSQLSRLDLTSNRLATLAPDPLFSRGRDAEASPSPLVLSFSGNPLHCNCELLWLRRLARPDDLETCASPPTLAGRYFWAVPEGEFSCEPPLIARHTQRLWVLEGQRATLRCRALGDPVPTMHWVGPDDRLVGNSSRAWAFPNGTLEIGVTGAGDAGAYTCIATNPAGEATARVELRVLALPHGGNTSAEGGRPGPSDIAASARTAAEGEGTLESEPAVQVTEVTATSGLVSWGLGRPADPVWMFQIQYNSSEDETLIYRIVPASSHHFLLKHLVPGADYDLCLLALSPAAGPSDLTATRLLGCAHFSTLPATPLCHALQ

Binder | stoichiometry N [1] | Kd [2] [nM]
B1 | 1 PTPσ per SALM3 (2:2 complex) | –
B2 | – | 22.3 ± 5
